Results reported in US20240115668A1, “TREATMENT OF SPINAL CORD INJURY WITH PTEN INHIBITOR” (KOLON TISSUEGENE, INC., priority 2020, published 2024).
Where no end group is shown, it is not given here.

Key:
[1] = target: T1, PTEN (Homo sapiens, UniProt P60484); conditions: previous study of Odriozola et al.; read-out: IC50 (in vitro PTEN activity, Odriozola et al.); cited from earlier work
Target sequence in this assay (P60484 whole entry, species assumed): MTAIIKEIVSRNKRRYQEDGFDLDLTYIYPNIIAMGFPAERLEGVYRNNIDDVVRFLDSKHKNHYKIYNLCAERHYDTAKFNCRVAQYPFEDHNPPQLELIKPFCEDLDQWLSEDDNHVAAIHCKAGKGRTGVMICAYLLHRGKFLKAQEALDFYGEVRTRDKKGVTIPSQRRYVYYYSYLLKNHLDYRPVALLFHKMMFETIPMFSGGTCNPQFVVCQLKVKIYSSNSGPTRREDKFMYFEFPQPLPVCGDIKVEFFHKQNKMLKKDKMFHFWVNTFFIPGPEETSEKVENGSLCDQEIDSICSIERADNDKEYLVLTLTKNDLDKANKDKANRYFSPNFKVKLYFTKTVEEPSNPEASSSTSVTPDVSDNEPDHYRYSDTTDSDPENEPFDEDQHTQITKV

[2] = target: T1, PTEN; assay: In vitro PTEN activity assay / IC50 assay (Malachite Green phosphate detection, C8-PIP3 liposome substrate); format: biochemical; parameters: purchased R&D Systems, Inc; conditions: 10 μM peptide, 20 ng recombinant human PTEN, 0.1 mM C8-PIP3 liposome
Target sequence in this assay (P60484 whole entry): as the sequence (P60484 whole entry, species assumed) above
From the text: In vitro PTEN activity assay was designed to check PTEN lipid phosphatase activity to convert phosphatidylinositol triphosphate (PIP3) to phosphatidylinositol diphosphate (PIP2) and produce phosphate ion (Pi). 1,2-dioctanoyl-sn-glycero-3-phospho-(1′-myo-inositol-3,4,5-triphosphate) (C8-PIP3) was used as PTEN substrate and prepared as lipid vesicle (liposome) with other phospholipids because PTEN as lipid phosphatase is an interfacial enzyme. For liposome preparation, C8-PIP3, DOPS (1,2-dioeloyl-sn-glycero-phosphoserine) and DOPC (1,2-dioeloyl-sn-glycero-phosphocholine) were mixed together with 800 μL of liposome buffer (50 mM Tris, 100 mM NaCl, 10 mM MgCl2, 5 mM DTT, pH=8.0) to final concentration of 0.1 mM of C8-PIP3, 0.25 mM DOPS and 0.25 mM DOPC. The lipid mixture was then sonicated at 4° C. for 30 min to produce liposome. After sonication, the liposome solution was briefly centrifuged to remove remaining lipids.
For PTEN activity assay, 20 ng of recombinant human PTEN protein was mixed with L of completed liposome solution. PTEN assay buffer (1 mM Tris, 20 mM DTT and 0.5% NP-40, pH=8.0) was added up to 100 μL as final volume. […] After incubation, the inorganic phosphate ions produced by PTEN protein was detected using Malachite Green phosphate detection kit. […]
All data represent experimentation in triplicate and the IC50 values were calculated by Prism 5 software (GraphPad Software). […]

[3] = tested on: endogenous Akt protein in PC12 cells; assay: Western blot of Akt activation (phosphorylation) level in PC12 cell lysates; format: cell-based, rat; conditions: differentiated PC12 cells, endogenous or overexpressed PTEN; TGN-1 10 and 100 μM, TGN-4 10 μM; 24 hr; anti-phospho Akt antibody
Method: PC12 rat pheochromocytoma cells were seeded to 6-well plate (0.6×10^6 cells/well) and cultured with DMEM media containing 7.5% FBS and 7.5% Goat Serum. After the cell confluency reached around 60˜ 70%, NGF (nerve growth factor, 50 ng/mL) was added to the PC12 cells for differentiation and incubated for 5 more days. Then, fresh media containing different amounts of TGN peptides in DMSO solution were added to each well and incubated further for 24 hr. For PTEN overexpression, PC12 cells were seeded in 6-well plate (1.0×10^6 cells/well) and differentiated with NGF (50 ng/mL) as above. DNA-Lipofectamine 2000 mixture was prepared for each well of cells to be transfected by firstly adding 2˜ 2.5 μg of human PTEN c-DNA into 500 μl of Opti-MEM. 3.75-8.75 μl of Lipofectamine 2000™ reagent was added next to the above diluted DNA solution, mixed gently and incubated for 25 minutes at room temperature. Growth media of PC12 cells in 6-well plate was exchanged with fresh media and 500 μl of the DNA-Lipofectamine 2000 complex was added to each well for transfection. Transfected cells were incubated at 37° C. in 5.0% CO2 incubator for 24-48 hours post-transfection before assaying for transgene expression.
After culturing, PC12 cells were collected from the 6-well plate and centrifuged down with bench-top centrifuger to make cell pellet (13,000 rpm, 5 min at RT). […]

Row | Substance | IC50 [1] | Inhibition of PTEN activity (in words) [2] | Activation (phosphorylation) level of Akt protein [3]
1 | Cp23: synthetic phosphomimic peptide of Odriozola et al. encompassing PTEN AA368-390, no phosphorylated Serine residues (DVSDNEPDHYRYSDTTDSDPENE; UniProt P60484 368-390, looked up, fragment) | ~1030 µM |  | 
2 | RRRRRRRR-DEHDTEYTPDYRQETHFNSQPTDKSDVI-amide (RRRRRRRRDEHDTEYTPDYRQETHFNSQPTDKSDVI-NH2) [TGN-5, scrambled peptide of TGN-2/TGN-3] |  | no significant inhibition of PTEN activity | 
3 | RRRRRRRR-SDDEYTDNPDSRYVSDTPVDTEH-amide (RRRRRRRRSDDEYTDNPDSRYVSDTPVDTEH-NH2) [TGN-4, scrambled peptide of TGN-1, negative control] |  | no significant inhibition of PTEN activity | did not increase the activation level of AKT protein
